From patent US20160272706A1 (AstraZeneca / MedImmune, published 2016)

Assays:
[1] = molecular target: T1, Human IL-13 (human, UniProt P35225 35-146); experiment: biochemical receptor-ligand inhibition assay, purified scFv titrated; the IL-13 receptor used is not named in Example 1
T1 construct: also called human interleukin 13 (Peprotech); the antigen

[2] = molecular target: T1, Human IL-13; experiment: IC50 of the parent scFv divided by IC50 of the clone, biochemical receptor-ligand inhibition assay, purified scFv
[3] = molecular target: T1, Human IL-13; experiment: biochemical receptor-ligand inhibition assay, purified scFv titrated (second panel); the IL-13 receptor used is not named in Example 1
[4] = molecular target: T1, Human IL-13; experiment: IC50 of the parent scFv divided by IC50 of the clone, biochemical receptor-ligand inhibition assay, purified scFv (second panel)

T1 sequence (P35225 35-146 limits assumed): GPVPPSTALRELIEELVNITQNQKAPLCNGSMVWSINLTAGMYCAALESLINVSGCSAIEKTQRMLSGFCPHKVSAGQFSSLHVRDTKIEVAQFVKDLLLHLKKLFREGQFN

| IC50 [1] | Fld improvement [2] | IC50 [3] | Fld improvement [4] | Binder |
| --- | --- | --- | --- | --- |
| – | – | 7.11 nM | 6.5 fold | 13NG0087 (scFv, V domains shown, purified scFv from the mini-recombination library; member of group m20; also called ZZ0SEF-E05; copies: 1 + 1) VH: QVQLVQSGAEVKKPGASVKVSCKASGYTFTNYGLSWVRQAPGQGLEWMGWINYDGGNTQYGQEFQGRVTMTTDTSTSTAYMELRSLRSDDTAVYYCARDSSSSWARWFFDLWGRGTLVTVSS VL: SYVLTQPPSVSVAPGKTARIPCGGNMVAARLVHWYQQKPGQAPVLIMFDDQDRPSGIPERFSGSNSGNTATLTISRVEAGDEADYYCQVWDTGSLPVVFGGGTKLTVL |
| – | – | 10.7 nM | 4.3 fold | 13NG0084 (scFv, V domains shown, purified scFv from the mini-recombination library; member of group m20; also called ZZ0SED-F07; copies: 1 + 1) VH: QVQLVQSGAEVKKPGASVKVSCKASGYTFTNYGLSWVRQAPGQGLEWMGWINYDGGNTQYGQEFQGRVTMTTDTSTSTAYMELRSLRSDDTAVYYCARDSSSSWARWFFDLWGRGTLVTVSS VL: SYVLTQPPSVSVAPGKTARIPCGGNLIAARLVHWYQQKPGQAPVLIVFDDEDRPSGIPERFSGSNSGNTATLTISRVEAGDEADYYCQVWDTGSSPVVFGGGTKLTVL |
| – | – | 10.8 nM | 4.2 fold | 13NG0085 (scFv, V domains shown, purified scFv from the mini-recombination library; member of group m20; also called ZZ0SEF-G10; copies: 1 + 1) VH: QVQLVQSGAEVKKPGASVKVSCKASGYTFTNYGLSWVRQAPGQGLEWMGWINYDGGNTQYGQEFQGRVTMTTDTSTSTAYMELRSLRSDDTAVYYCARDSSSSWARWFFDLWGRGTLVTVSS VL: SYVLTQPPSVSVAPGKTARIPCGGNMVGARLVHWYQQKPGQAPVLIIMDDIDRPSGIPERFSGSNSGNTATLTISRVEAGDEADYYCQVWDTGSRPVVFGGGTKLTVL |
| – | – | 8.88 nM | 5.2 fold | 13NG0083 (antibody, V domains shown, also called unmodified 13NG0083; WT) VH: QVQLVQSGAEVKKPGASVKVSCKASGYTFTNYGLSWVRQAPGQGLEWMGWINYDGGNTQYGQEFQGRVTMTTDTSTSTAYMELRSLRSDDTAVYYCARDSSSSWARWFFDLWGRGTLVTVSS VL: SYVLTQPPSVSVAPGKTARIPCGGNMVGARLVHWYQQKPGQAPVLIVFDDEDRPSGIPERFSGSNSGNTATLTISRVEAGDEADYYCQVWDTGSSPVVFGGGTKLTVL |
| – | – | 8.9 nM | 5.2 fold | 13NG0081 (scFv, V domains shown, purified scFv from the mini-recombination library; member of group m20; the text gives two different numbers for the VH; also called ZZ0SE9-C11; copies: 1 + 1) VH: QVQLVQSGAEVKKPGASVKVSCKASGYTFTNYGLSWVRQAPGQGLEWVGWINYDGGNTQYGQEFQGRVTMTTDTSTSTAYMELRSLRSDDTAVYYCARDSSSSWARWFFDLWGRGTLVTVSS VL: SYVLTQPPSVSVAPGKTARIPCGGNLIGARLVHWYQQKPGQAPVLIVYDDMDRPSGIPERFSGSNSGNTATLTISRVEAGDEADYYCQVWDTGSRPVVFGGGTKLTVL |
| – | – | 14.2 nM | 3.2 fold | 13NG0086 (scFv, V domains shown, purified scFv from the mini-recombination library; member of group m20; also called ZZ0SEB-F04; copies: 1 + 1) VH: QVQLVQSGAEVKKPGASVKVSCKASGYTFTNYGLSWVRQAPGQGLEWMGWINYDGGNTQYGQEFQGRVTMTTDTSTSTAYMELRSLRSDDTAVYYCARDSSSSWARWFFDLWGRGTLVTVSS VL: SYVLTQPPSVSVAPGKTARIPCGGNMVGARLVHWYQQKPGQAPVLIVYDDMDRPSGIPERFSGSNSGNTATLTISRVEAGDEADYYCQVWDTGSRPVVFGGGTKLTVL |
| – | – | 11.2 nM | 4.1 fold | 13NG0080 (scFv, V domains shown, purified scFv from the mini-recombination library; member of group m20; also called ZZ0SEA-D07; copies: 1 + 1) VH: QAQLVQSGAEVKKPGASVKVSCKASGYTFTNYGLSWVRQAPGQGLEWMGWINYDGGNTQYGQEFQGRVTMTTDTSTSTAYMELRSLRSDDTAVYYCARDSSSSWARWFFDLWGRGTLVTVSS VL: SYVLTQPPSVSVAPGKTARIPCGGNLIAARLVHWYQQKPGQAPVLIVFDDEDRPSGIPERFSGSNSGNTATLTISRVETGDEADYYCQVWDTGSSPVVFGGGTKLTVL |
| – | – | 11 nM | 4.2 fold | 13NG0082 (scFv, V domains shown, purified scFv from the mini-recombination library; member of group m20; also called ZZ0SEF-E03; copies: 1 + 1) VH: QVQLVQSGAEVKKPGASVKVSCKASGYTFTNYGLSWVRQAPGQGLEWMGWINYDGGNTQYGQEFQGRVTMTTDTSTSTAYMELRSLRSDDTAVYYCARDSSSSWARWFFDLWGRGTLVTVSS VL: SYVLTQPPSVSVAPGKTARIPCGGNMVGARLVHWYQQKPGQAPVLIVFDDEDRPSGIPERFSGSNSGNTATLTISRVEAGDEADYYCQVWDTGSRPVVFGGGTKLTVL |
| – | – | 7.86 nM | 5.8 fold | 13NG0079 (scFv, V domains shown, purified scFv from the mini-recombination library; member of group m20; also called ZZ0SEA-B02; copies: 1 + 1) VH: QVQLVQSGAEVKKPGASVKVSCKASGYTFTNYGLSWVRQAPGQGLEWMGWINYDGGNTQYGQEFQGRVTMTTDTSTSTAYMELRSLRSDDTAVYYCARDSSSSWARWFFDLWGRGTLVTVSS VL: SYVLTQPPSVSVAPGKTARIPCGGNLIGARLVHWYQQKPGQAPVLIVYDDMDRPSGIPERFSGSNSGNTATLTISRVEAGDEADYYCQVWDTGSLPVVFGGGTKLTVL |

The remaining lines, values behind:

| Binder | IC50 [1] | Fld improvement [2] | IC50 [3] | Fld improvement [4] |
| --- | --- | --- | --- | --- |
| 13NG0067 (scFv, V domains shown, purified scFv from the mini-recombination library; member of group m20; also called ZZ0SEF-H04; copies: 1 + 1) VH: QVQLVQSGAEVKKPGASVKVSCKASGYTFTNYGLSWVRQAPGQGLEWMGWINYDGGNTQYGQEFQGRVTMTTDTSTSTAYMELRGLRSDDTAVYYCARDSSSSWARWFFDLWGRGTLVTVSS VL: SYVLTQPPSVSVAPGKTARIPCGGNMVGARLVHWYQQKPGQAPVLIIMDDIDRPSGIPERFSGSNSGNTATLTISRVEAGDEADYYCQVWDTGSSPVVFGGGTKLTVL | 6.63 nM | 6.12 fold | – | – |
| 13NG0068 (scFv, V domains shown, purified scFv from the mini-recombination library; member of group m20; also called ZZ0SEB-B02; copies: 1 + 1) VH: QVQLVQSGAEVKKPGASVKVSCKASGYTFTNYGLSWVRQAPGQGLEWVGWINYDGGNTQYGQEFQGRVTMTTDTSTGTAYMELRSLRSDDTAVYYCARDSSSSWARWFFDLWGRGTLVTVSS VL: SYVLTQPPLVSVAPGKTARIPCGGNLIGARLVHWYQQKPGQAPVLIIMDDIDRPSGIPERFSGSNSGNTATLTISRVEAGDEADYYCQVWDTGSDPVVFGGGTKLTVL | 5.42 nM | 7.5 fold | – | – |
| 13NG0069 (scFv, V domains shown, purified scFv from the mini-recombination library; member of group m20; also called ZZ0SEA-A03; copies: 1 + 1) VH: QVQLVQSGAEVKKPGASVKVSCKASGYTFTNYGLSWVRQAPGQGLEWMGWINYDGGNTQYGQEFQGRVTMTTDTSTSTAYMELRSLRSDDTAVYYCARDSSSSWARWFFDLWGRGTLVTVSS VL: SYVLTQPPSVSVAPGKTARIPCGGNMVGARLVHWYQQKPGQAPVLIIMDDIDRPSGIPERFSGSNSGNTATLTISRVEAGDEADYYCQVWDTGSRPVVFGGGTKLTVL | 7.85 nM | 5.18 fold | – | – |
| 13NG0072 (scFv, V domains shown, purified scFv from the mini-recombination library; member of group m20; also called ZZ0SEA-H11; copies: 1 + 1) VH: QVQLVQSGAEVKKPGASVKVSCKASGYTFTNYGLSWVRQAPGQGLEWMGWINYDGGNTQYGQEFQGRVTMTTDTSTSTAYMELRSLRSDDTAVYYCARDSSSSWARWFFDLWGRGTLVTVSS VL: SYVLTQPPSVSVAPGKTARIPCGGNMVGARLVHWYQQKPGQAPVLIVYDDMDRPSGIPERFSGSNSGNTATLTISRVETGDEADYYCQVWDTGSRPVVFGGGTKLTVL | 12.8 nM | 3.16 fold | – | – |
| 13NG0075 (scFv, V domains shown, purified scFv from the mini-recombination library; member of group m20; also called ZZ0SEE-A06; copies: 1 + 1) VH: QVQLVQSGAEVKKPGASVKVSCKASGYTFTNYGLSWVRQAPGQGLEWMGWINYDGGNTQYGQEFQGRVTMTTDTSTSTAYMELRSLRSDDTAVYYCARDSSSSWARWFFDLWGRGTLVTVSS VL: SYVLTQPPSVSVAPGKTARIPCGGNMVGARLVHWYQQKPGQAPVLVIMDDIDRPSGIPERFSGSNSGNTATLTISRVEAGDEADYYCQVWDTGSRPVVFGGGTKLTVL | 9.65 nM | 4.21 fold | – | – |
| 13NG0070 (scFv, V domains shown, purified scFv from the mini-recombination library; member of group m20; also called ZZ0SED-B06; copies: 1 + 1) VH: QVQLVQSGAEVKKPGASVKVSCKASGYTFTNYGLSWVRQAPGQGLEWMGWINYDGGNTQYGQEFQGRVTMTTDTSTSTAYMELRSLRSDDTAVYYCARDSSSSWARWFFDLWGRGTLVTVSS VL: SYVLTQPPSVSVAPGKTARIPCGGNMVGARLVHWYQQKPGQAPVLIVFDDEDRPSGIPERFSGSNSGNTATLTISRVEAGDEADYYCQVWDTGSRPVVFGGGTKLTVL | 9.49 nM | 4.28 fold | – | – |
| 13NG0076 (scFv, V domains shown, purified scFv from the mini-recombination library; member of group m20; also called ZZ0SEA-F10; copies: 1 + 1) VH: QVQLVQSGAEVKKPGASVKVSCKASGYTFTNYGLSWVRQAPGQGLEWMGWINYDGGNTQYGQEFQGRVTMTTDTSTSTAYMELRSLRSDDTAVYYCARDSSSSWARWFFDLWGRGTLVTVSS VL: SYVLTQPPSVSVAPGKTARIPCGGNMVGARLVHWYQQKPGQAPVLVIMDDIDRPSGIPERFSGSNSGNTATLTISRVEAGDEADYYCQVWDTGSRPVVFGGGTKLTVL | 7.98 nM | 5.09 fold | – | – |
| 13NG0077 (scFv, V domains shown, purified scFv from the mini-recombination library; member of group m20; also called ZZ0SED-A07; copies: 1 + 1) VH: QVQLVQSGAEVKKPGASVKVSCKASGYTFTNYGLSWVRQAPGQGLEWMGWINYDGGNTQYGQEFQGRVTMTTDTSTSTAYMELRSLRSDDTAVYYCARDSSSSWARWFFDLWGRGTLVTVSS VL: SYVLTQPPSVSVAPGKTARIPCGGNMVGAYLVHWYQQKPGQAPVLIVYDDMDRPSGIPERFSGSNSGNTATLTISRVEAGDEADYYCQVWDTGSSPVVFGGGTKLTVL | 10.3 nM | 3.93 fold | – | – |
| 13NG0071 (scFv, V domains shown, purified scFv from the mini-recombination library; member of group m20; also called ZZ0SEE-A09; copies: 1 + 1) VH: QVQLVQSGAEVKKPGASVKVSCKASGYTFTNYGLSWVRQAPGQGLEWMGWINYDGGNTQYGQEFQGRVTMTTDTSTSTAYMELRSLRSDDTAVYYCARDSSSSWARWFFDLWGRGTLVTVSS VL: SYVLTQPPSVSVAPGKTARIPCGGNMVGARLVHWYQQKPGQAPVLIVFDDEDRPSGIPERFSGSNSGNTATLTISRVEAGDEADYYCQVWDTGSLPVVFGGGTKLTVL | 10.7 nM | 3.8 fold | – | – |
| 13NG0078 (scFv, V domains shown, purified scFv from the mini-recombination library; member of group m20; also called ZZ0SFL-G06; copies: 1 + 1) VH: QVQLVQSGAEVKKPGASVKVSCKASGYTFTNYGLSWVRQAPGQGLEWVGWINYDGGNTQYGQEFQGRVTMTTDTSTSTAYMELRSLRSDDTAVYYCARDSSSSWARWFFDLWGRGTLVTVSS VL: SYVLTQPPSVSVAPGKTARIPCGGNLIAARLVHWYQQKPGQAPVLIMFDDQDRPSGIPERFSGSNSGNTATLTISRVETGDEADYYCQVWDTGSLPVVFGGGTKLTVL | – | – | 7.22 nM | 6.4 fold |
